Measured values: patent US20120045393A1 (priority 2009, published 2012)
Like-named read-outs stand apart in the source and are kept apart here. Non-standard residues stand in square brackets, D forms with d. *: point of attachment. Bpa = N[C@@H](Cc1ccc(C(=O)c2ccccc2)cc1)C(=O)O; d1Nal = N[C@H](Cc1cccc2ccccc12)C(=O)O; d2Nal = N[C@H](Cc1ccc2ccccc2c1)C(=O)O; Hyp = O=C(O)[C@@H]1C[C@@H](O)CN1; d3Pal = N[C@H](Cc1cccnc1)C(=O)O; His(1-Me) = 1-methylhistidine; DO3A10CM = not defined here; Nicotinoyl = O=C(c1cccnc1)*; Bzgly = not defined here; Dcfe4 = not defined here; dCfe4 = not defined here; Afe4 = not defined here; azaGly = NNC(=O)O; Sar = CNCC(=O)O; iPr = CC(C)*

What was measured:
[1] = test system: EFO-27 human ovarian cancer cells (LHRH binding sites); experiment: Direct binding/uptake of 177Lu-labeled LHRH-II analogs to EFO-27 cells; settings: 177Lu-labeled analog, single concentration
Description: All reagents and chemicals were obtained from Sigma unless otherwise specified. LHRH analogs and ^177Lu-LHRH-II analogs were prepared by in-house chemists, as described elsewhere in the application. ^177Lu-LHRH-II analogs were not HPLC purified, as they had been prepared using formulation conditions that yielded high RCP without the need for purification. […] The HPLC-purified material was taken in a stabilizing buffer containing 5% lactose, 0.1% L-cysteine hydrochloride and 800 KIU/mL aprotinin and received as a lyophilized product and stored at −70° C. This was reconstituted in distilled water, aliquoted and stored at −70° C. The radioactivity was determined using Microplate Scintillation counter (Wallac Microbeta Trilux).
For the binding assay, EFO-27 cells were seeded onto 96-well clear flat-bottom tissue-culture-treated plates at 15,000/well density in the growth medium and used for assay on day 2 post-seeding. Cells were routinely checked for confluence and contamination and cell count was done occasionally to ensure consistency in cell numbers.
Direct Binding: Direct binding studies were carried out by incubating appropriate ^177Lu-labeled compounds with EFO-27 cells at 4° C. for 1 h followed by washing off the unbound radioactivity. Non-specific binding was determined by incubating the ^177Lu-LHRH-II analogs in the presence of a large excess (30 uM) of cold (unlabeled) LHRH-II analogs. A 96-well plate format was used.

[2] = test system: LHRH binding sites on human ovarian cancer cells (EFO-27);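 note: Cell-associated radioactivity on confluent EFO-27 monolayers in 96-well plates, measured by microplate scintillation counting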
Description: The EFO27 human ovarian cancer cells were obtained from the American Type Culture Collection and cultured in growth medium, RPMI 1640 (Cellgro) supplemented with 10% fetal bovine serum. The cultures were maintained in a humidified atmosphere containing 5% CO2/95% air at 37° C. and passaged and harvested routinely using 0.05% trypsin/EDTA.
LHRH compounds were screened in a standard cell-based plate assay for their ability to compete with the radio-iodinated LHRH, [Darg^6, ^125I-Tyr^8,azaGly^10-LHRH-II] ([^125I-Tyr^8]BRU-2477) for binding to cancer cells. […] Briefly, EFO-27 cells were cultured and seeded in 96-well clear flat bottom plates at 30,000/well density in growth medium and were used for the assay at 100% confluence the following day, after a wash with chilled phosphate-buffered saline pH 7.4 (PBS). The binding assay was carried out by incubating cells with [^125I-Tyr^8]BRU-2477 in the absence or presence of varying concentrations of test compounds for 90 min at −10° C. All compounds were diluted in phosphate buffered saline (VWR CAT#45000-434) supplemented with 20 mM HEPES, 0.1% BSA, 0.5 mM PMSF (AEBSF), bacitracin (100 mg/L), pH 7.4. At the end of incubation, cells were washed with PBS and the radioactivity associated with each well was read using a Microplate Scintillation counter. [^125I-Tyr^8]BRU-2477 was custom made by GE Healthcare (Woburn, Mass.) and supplied as freeze-dried powder with a radiochemical purity (RCP) of >95% and specific activity of 2000 Ci/mmol.

[3] = biological target: LHRH receptor (LHRH binding sites) on EFO-27 human ovarian cancer cells (human); experiment: direct binding of 177Lu-labeled peptide to EFO-27 cells, single concentration
[4] = biological target: LHRH receptor (LHRH binding sites) on EFO-27 human ovarian cancer cells (human); experiment: competition with [125I-Tyr8]BRU-2477, EFO-27 cells
[5] = biological target: LHRH binding sites on EFO-27 human ovarian cancer cells (human); experiment: competition with [125I-Tyr8]BRU-2477 on EFO-27 cells
[6] = biological target: LHRH receptor (LHRH binding sites) on EFO-27 human ovarian cancer cells (human); experiment: competition with [125I-Tyr8]BRU-2477 for binding to EFO-27 cells
[7] = read-out: 125I-LHRH II Competition EC50, Table 24, unlabeled analogs, EFO-27 cells

Row | Molecule | % Bound [3] | 177Lu-LHRH II Direct binding % Bound [1] | further results
1 | N=C(N)NCCC[C@@H](NC(=O)[C@H](Cc1c[nH]cn1)NC(=O)[C@H](CO)NC(=O)[C@H](Cc1c[nH]c2ccccc12)NC(=O)[C@H](Cc1c[nH]cn1)NC(=O)CN(Cc1ccccc1)C(=O)CNC(=O)CN1CCN(CC(=O)O)CCN(CC(=O)O)CCN(CC(=O)O)CC1)C(=O)N[C@@H](Cc1c[nH]c2ccccc12)C(=O)N[C@@H](Cc1ccc(C(=O)c2ccccc2)cc1)C(=O)N1CCC[C@H]1C(=O)NNC(N)=O [compound 2792] |  | 1.28% | EC50 ([2]; Table 8: N-substituted amino acid at position 1 and Gly as linker, in vitro binding on EFO-27 cells): 2270 nM; EC50 ([2]; Table 13: linker between AA1 and DO3A10CM, EFO-27 cells): 650 nM; EC50 [2, 7]: 1800 nM
2 | 2624 (XHWSHXWXPX; N-methyl) [compound 2624] |  | 4.03% | EC50 [2, 7]: 2010 nM
3 | 2613 (DO3A10CM-G[Sar][Dcfe4][d1Nal]S[Metyr][dK](Nicotinoyl)LK(iPr)P[dA]-NH2; reading uncertain) [compound 2613] |  | 0.17% | EC50 [2, 7]: > 10000 nM
4 | 2642 (DO3A10CM-G[d2Nal][Dcfe4][d3Pal]S[Metyr][dK](Nicotinoyl)LK(iPr)[Hyp][dA]-NH2; reading uncertain) [compound 2642] |  | 0.105% | EC50 [2, 7]: > 10000 nM
5 | 2721 (XHWSHXWXPX; not fully specified; N-methyl) [compound 2721] |  | 0.79% | EC50 [2, 7]: 4550 nM
6 | N=C(N)NCCC[C@H](NC(=O)[C@@H](Cc1ccc2ccccc2c1)NC(=O)CN1CCN(CC(=O)O)CCN(CC(=O)O)CCN(CC(=O)O)CC1)C(=O)N[C@@H](Cc1c[nH]c2ccccc12)C(=O)N[C@@H](CO)C(=O)N[C@@H](Cc1c[nH]cn1)C(=O)N[C@H](CCCNC(=N)N)C(=O)N[C@@H](Cc1c[nH]c2ccccc12)C(=O)N[C@@H](Cc1ccc(C(=O)c2ccccc2)cc1)C(=O)N1CCC[C@H]1C(=O)NNC(N)=O [compound 2813] |  | 18.80% | EC50 [2, 7]: 300 nM
7 | N=C(N)NCCC[C@H](NC(=O)[C@@H](Cc1ccc2ccccc2c1)NC(=O)CN1CCN(CC(=O)O)CCN(CC(=O)O)CCN(CC(=O)O)CC1)C(=O)N[C@@H](Cc1c[nH]c2ccccc12)C(=O)N[C@@H](CO)C(=O)N[C@@H](Cc1c[nH]cn1)C(=O)N[C@H](CCCNC(=N)N)C(=O)N[C@@H](Cc1c[nH]c2ccccc12)C(=O)N[C@@H](Cc1ccc(C(=O)c2ccccc2)cc1)C(=O)N1CCC[C@H]1C(=O)NCCOCCN [compound 2968] |  | 23.5% | EC50 [2]: 240 nM
8 | 2738 (XFWSHXWXPX; N-methyl) [compound 2738] |  | 1.41% | 
9 | 2440 (DO3A10CM-[Sar]HWSH[dR]WYP[azaGly]-NH2; reading uncertain) [compound 2440] |  | 0.21% | EC50 [2, 7]: > 10000 nM
10 | 2812 (DO3A10CM-[d2Nal][Afe4]WSH[dR]W[Bpa]P[azaGly]-NH2; not fully specified; printed as X-Dnal2-Afe4-Trp-Ser-His-Darg-Trp-Bpa4-Pro-azaG-NH2; reading uncertain) [compound 2812] |  | 5.80% | EC50 [2, 7]: 3690 nM
11 | N=C(N)NCCC[C@@H](NC(=O)[C@H](Cc1c[nH]cn1)NC(=O)[C@H](CO)NC(=O)[C@H](Cc1c[nH]c2ccccc12)NC(=O)[C@H](Cc1c[nH]cn1)NC(=O)[C@@H](Cc1ccc2ccccc2c1)NC(=O)CN1CCN(CC(=O)O)CCN(CC(=O)O)CCN(CC(=O)O)CC1)C(=O)N[C@@H](Cc1c[nH]c2ccccc12)C(=O)N[C@@H](Cc1ccc(C(=O)c2ccccc2)cc1)C(=O)N1CCC[C@H]1C(=O)NNC(N)=O [compound 2666] |  | 13.25% | 
12 | XHWSHXWXPX (as printed: DO3A10CM-Dnal1-His-Trp-Ser-His-Darg-Trp-Bpa4-Pro-azaGly-NH2) [BRU-2869] |  |  | EC50 [4]: 360 nM; EC50 [5]: 360 nM; EC50 [6]: 360 nM
13 | DO3A10CM-[Sar]HWSH[dR]WYP[azaGly]-NH2 (reading uncertain; also: 177Lu complexed by DO3A10CM, printed as 177Lu-DO3A10CM-Sar-His-Trp-Ser-His-Darg-Trp-Tyr-Pro-azaGly-NH2) [^177Lu-BRU-2440] | 0.21% |  | 
14 | XHWSHXWXPX (177Lu held by the N-terminal DO3A10CM: 177Lu-DO3A10CM-Sar-His-Trp-Ser-His-Darg-Trp-Nal2-Pro-azaGly-NH2) [^177Lu-BRU-2624] | 4.03% |  | 
15 | DO3A10CM-G[Sar][dCfe4][d1Nal]S[Metyr][dK](Nicotinoyl)LK(iPr)P[dA]-NH2 (reading uncertain; also: 177Lu complexed by DO3A10CM, printed as 177Lu-DO3A10CM-Gly-Sar-Dcfe4-Dnal1-Ser-Metyr-Dlys(Nic)-Leu-Lys(isp)-Pro-Dala-NH2) [^177Lu-BRU-2613] | 0.17% |  | 
16 | DO3A10CM-G[d2Nal][dCfe4][d3Pal]SH[dR]WYP[dA]-NH2 (reading uncertain; also: 177Lu complexed by DO3A10CM, printed as 177Lu-DO3A10CM-Gly-Dnal2-Dcfe4-Dpal3-Ser-His-Darg-Trp-Tyr-Pro-Dala-NH2) [^177Lu-BRU-2644] | 2.13% |  | 
17 | XXHWSHXWXPX (177Lu held by the N-terminal DO3A10CM: 177Lu-DO3A10CM-Gly-Abz4-Sar-His-Trp-Ser-His-Darg-Trp-Bpa4-Pro-azaGly-NH2) [^177Lu-BRU-2696] | 0.94% |  | 
18 | XHWSHXWXPX (177Lu held by the N-terminal DO3A10CM: 177Lu-DO3A10CM-Sar-His-Trp-Ser-His-Darg-Trp-Bpa4-Pro-azaGly-NH2) [^177Lu-BRU-2443] | 1.8% |  | 
19 | XHWSHXWXPX (177Lu held by the N-terminal DO3A10CM: 177Lu-DO3A10CM-Sar-His-Trp-Ser-His-Darg-Trp-Dip-Pro-azaGly-NH2) [^177Lu-BRU-2721] | 0.79% |  | 

Further lines, with some results ahead:

Row | % Bound [3] | Molecule | 177Lu-LHRH II Direct binding % Bound [1] | further results
20 | 0.125% | XHWSHXWXPX (177Lu held by the N-terminal DO3A10CM: 177Lu-DO3A10CM-Sar-His-Trp-Ser-His-Darg-Trp-Tha-Pro-azaGly-NH2) [^177Lu-BRU-2742] |  | 
21 | 1.62% | XHWSHXWXPX (177Lu held by the N-terminal DO3A10CM: 177Lu-DO3A10CM-Meala-His-Trp-Ser-His-Darg-Trp-Bpa4-Pro-azaGly-NH2) [^177Lu-BRU-2736] |  | 
22 | 1.41% | XFWSHXWXPX (177Lu held by the N-terminal DO3A10CM: 177Lu-DO3A10CM-Sar-Phe-Trp-Ser-His-Darg-Trp-Bpa4-Pro-azaGly-NH2) [^177Lu-BRU-2738] |  | 
23 | 9.2% | XHWSHXWXPX (177Lu held by the N-terminal DO3A10CM: 177Lu-DO3A10CM-Dnal1-His-Trp-Ser-His-Darg-Trp-Bpa4-Pro-azaGly-NH2) [^177Lu-BRU-2869] |  | 
24 | 1.28% | DO3A10CM-G[Bzgly]HWSH[dR]W[Bpa]P[azaGly]-NH2 (reading uncertain; also: 177Lu complexed by DO3A10CM, printed as 177Lu-DO3A10CM-Gly-Bzgly-His-Trp-Ser-His-Darg-Trp-Bpa4-Pro-azaGly-NH2) [^177Lu-BRU-2792] |  | 
25 | 0.36% | XHWSHXWXPX (177Lu held by the N-terminal DO3A10CM: 177Lu-DO3A10CM-Sar-His-Trp-Ser-His-Darg-Trp-F5fe-Pro-azaGly-NH2) [^177Lu-BRU-2722] |  | 
26 | 0.7% | XHWSHXWXPX (177Lu held by the N-terminal DO3A10CM: 177Lu-DO3A10CM-Adoa-Adoa-Sar-His-Trp-Ser-His-Darg-Trp-Bpa4-Pro-azaGly-NH2) [^177Lu-BRU-2896] |  | 
27 | 3.4% | XHWSHXWXPX (177Lu held by the N-terminal DO3A10CM: 177Lu-DO3A10CM-Dphe-His-Trp-Ser-His-Darg-Trp-Bpa4-Pro-azaGly-NH2) [^177Lu-BRU-2894] |  | 
28 | 0.41% | XHWSHXWXPX (177Lu held by the N-terminal DO3A10CM: 177Lu-DO3A10CM-Sar-His-Trp-Ser-His-Darg-Trp-Cfe4-Pro-azaGly-NH2) [^177Lu-BRU-2725] |  | 
29 | 10.3% | DO3A10CM-G[d1Nal]HWSH[dR]W[Bpa]P[azaGly]-NH2 (reading uncertain; also: 177Lu complexed by DO3A10CM, printed as 177Lu-DO3A10CM-Gly-Dnal1-His-Trp-Ser-His-Darg-Trp-Bpa4-Pro-azaGly-NH2) [^177Lu-BRU-2766] |  | 
30 | 1.06% | DO3A10CM-[Sar]HWSH[dR]WP[azaGly]-NH2 (reading uncertain; also: 177Lu complexed by DO3A10CM, printed as 177Lu-DO3A10CM-Sar-His-Trp-Ser-His-Darg-Trp-azaG-NH2) [^177Lu-BRU-2767] |  | 
31 | 1% | XHWSHXWXPX (177Lu held by the N-terminal DO3A10CM: 177Lu-DO3A10CM-Sar-His-Trp-Ser-His-Darg-Trp-Thy-Pro-azaGly-NH2) [^177Lu-BRU-2823] |  | 
32 | 5.8% | DO3A10CM-[d2Nal][Afe4]WSH[dR]W[Bpa]P[azaGly]-NH2 (reading uncertain; also: 177Lu held by N-terminal DO3A10CM, printed as 177Lu-DO3A10CM-Dnal2-Afe4-Trp-Ser-His-Darg-Trp-Bpa4-Pro-azaGly-NH2) [^177Lu-BRU-2812] |  | 
33 | 1.35% | DO3A10CM-[Sar][His(1-Me)]WSH[dR]W[Bpa]P[azaGly]-NH2 (reading uncertain; also: 177Lu complexed by DO3A10CM, printed as 177Lu-DO3A10CM-Sar-His(1-Me)-Trp-Ser-His-Darg-Trp-Bpa4-Pro-azaGly-NH2) [^177Lu-BRU-2741] |  | 
34 | 2.4% | XHWSHXWXPX (177Lu held by the N-terminal DO3A10CM: 177Lu-DO3A10CM-Dafe4-His-Trp-Ser-His-Darg-Trp-Bpa4-Pro-azaGly-NH2) [^177Lu-BRU-2810] |  | 
